Data as given in PMC8604678, “The MttB superfamily member MtyB from the human gut symbiont Eubacterium limosum is a cobalamin-dependent γ-butyrobetaine methyltransferase” (The Journal of Biological Chemistry, 2021).

Tests used:
[1] = substrate: C[N+](C)(C)CCCC(=O)[O-]; assay: UV-visible spectrophotometric MtqC methylation assay; format: biochemical, Eubacterium limosum; details: ATP, Ti(III)citrate, pH 7.2, 37 °C, anoxic
[2] = substrate: C[N+](C)(C)C[C@H](O)CC(=O)O; assay: as above; format: biochemical, Eubacterium limosum; details: methyl acceptor Co(I)-MtqC 15 μM, RamQ 5 μM, ATP, Ti(III)citrate, pH 7.2, 37 °C, anoxic
[3] = methyl acceptor Co(I)-MtqC 56 μM, RamQ 4.5 μM
[4] = methyl acceptor Co(I)-MtqC 30 μM, RamQ 5 μM

B1: MtcB (Eubacterium limosum) (protein)
chain: MIRNSLTDVFFAKDDVENLHEGVLRVLSKVGVKIENDEALGIFEQHGARVENGTVYIGEVLLNKALQTVPANFELQGFDRTVQVGLDHDPVVIPTNGTPMVLNFDGSYSDTNTDDLVNFYKLIDTSDVMQVTSEIAVDVPGLDKTKDSLLAQTALLMKYSHKPIYNILGATIHNYKKGSVAQGVRENIQFAKKYYGYDDKYVIYSGTCVISPLGVGWEAMDHFMGFIKENQPISITACSMTNLTAPGSLYGSVVEDAAAILSIVVLSQLMNPGLPVLYTSLSSMSDMRYVQLCMGAPEFALITLGHIALANFYKIPVRVGGALGDAFKADYQAGVESFVGLMAPMLSQSAMIPHGCGTMGSFNLTSYEKFIMDEETIRYLMRLRRGFEVSDKRKEKALKDITKVGPRGNFLGGRTPKEYREDNYLASEVFNRKGCKENTREEQGDIRDRARKVYDARMEAYELPDTTLEQKKLLNTELPEQYKFDI
notes: expression plasmid of earlier work
- Km [1, 3]: 15 ± 6 mM
- kcat [1, 3]: 0.138 ± 0.0183 s⁻¹

B2: MtyB (Eubacterium limosum) (protein)
chain: MLKGNLFTTFYSKDDIELIHESVLRVFNEVGVKFEYEEALELFKKHGARVEGDLVFIPEELLNKALSTIPESFEIVGPESKLEIGIGKGLVVAPTNGCPNLEDWDGNYRQTNADDLENFYKIINTSDVYGISSQVAADIPGFENCPTESALAQMAMMAKYSRKPMYNILGITPHNYKRGNAREGARECVQLIKKYMDNFDDYVCYSGMCVLPPLTVGTDALEHYFAFAEEKQPITITTCSMTNMTAPPSLMGSIVADFANMLAVAVMIQLIEPGLPVILSPFSSVSDMREVRLMTGAPEFLMIMSGHIAMGDFYRIPVRCSGALADGFTYDYQAGVESTLGALAVSLSNACILPHASGDLSNFNLLSFPKFMMDEEMLRYMKRLHDGVAISEKKANVELIKKVGPRGVYLKGRTPKDYREETYLTSPVFNRGTCNEEGRAATPPIQERAYKVYKERIESFELPDMTQAQKDLLNEHLPEKFKIK
notes: C-terminal hexahistidine tag, codon-optimized gene in pETDuet-1 co-expressed with mtqC in E. coli Tuner(DE3), separated from MtqC by anion exchange
- Km [2]: 4.0 ± 0.7 mM
- kcat [2]: 6.78 ± 0.442 s⁻¹
- Km [1, 4]: 3.5 ± 0.7 mM
- kcat [1, 4]: 3 ± 0.167 s⁻¹
